Test results taken from patent US20150315272A1 (published 2015).

Key:
[1] = target: T1, Recombinant IL-17A/F heterodimer (IL-17A and IL-17F linked by a GS linker) (human); assay: Biacore 3000 SPR, 25 C, antibody captured by anti-mouse IgG Fc, cytokine titrated from 25 nM
T1 construct: also called heterodimer A/F; human recombinant IL-17A/F heterodimer
Protocol: All experiments were performed at 25° C. Affinipure F(ab′)₂ fragment goat anti-mouse IgG, Fc fragment specific (Jackson ImmunoResearch) was immobilised on a CMS Sensor Chip (Biacore AB) via amine coupling chemistry to a capture level of ≈6000 response units (RUs). HBS-EP buffer (10 mM HEPES pH 7.4, 0.15 M NaCl, 3 mM EDTA, 0.005% Surfactant P20, Biacore AB) was used as the running buffer with a flow rate of 10 μL/min. […] The surface was regenerated at a flowrate of 10 uL/min by a 10 μL injection of 40 mM HCl, followed by a 5 μL injection of 5 mM NaOH.
Double referenced background subtracted binding curves were analysed using the BIAevaluation software (version 3.2) following standard procedures. Kinetic parameters were determined from the fitting algorithm.

[2] = target: T2, IL-17C (UniProt Q9P0M4 19-197); assay: Biacore 3000 SPR, antibody captured by anti-human IgG Fc
T2 sequence (looked up): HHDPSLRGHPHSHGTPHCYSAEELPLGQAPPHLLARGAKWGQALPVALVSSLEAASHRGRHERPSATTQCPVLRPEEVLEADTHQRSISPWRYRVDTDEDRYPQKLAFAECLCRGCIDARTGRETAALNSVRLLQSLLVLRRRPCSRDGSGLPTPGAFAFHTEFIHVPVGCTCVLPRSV
Protocol: (§1) All experiments were performed at 25° C. Affinipure Fc Fragment goat anti-human IgG, Fc fragment specific (Jackson ImmunoResearch) was immobilised on a CMS Sensor Chip via amine coupling chemistry to a capture level of ≈6000 response units (RUs). HBS-EP buffer (10 mM HEPES pH 7.4, 0.15 M NaCl, 3 mM EDTA, 0.005% Surfactant P20, Biacore AB) was used as the running buffer with a flow rate of 10 μl/min. […] The surface was regenerated by a 30 μL injections of 40 mM HCl, followed by one 5 μL injection of 5 mM NaOH.
(§2) Background subtraction binding curves were double referenced and analysed using the BIAevaluation software (version 3.2) following standard procedures. Kinetic parameters were determined from the fitting algorithm.

[3] = target: T3, IL-17D (UniProt Q8TAD2 18-202, limits assumed); assay: as above
T3 sequence (looked up): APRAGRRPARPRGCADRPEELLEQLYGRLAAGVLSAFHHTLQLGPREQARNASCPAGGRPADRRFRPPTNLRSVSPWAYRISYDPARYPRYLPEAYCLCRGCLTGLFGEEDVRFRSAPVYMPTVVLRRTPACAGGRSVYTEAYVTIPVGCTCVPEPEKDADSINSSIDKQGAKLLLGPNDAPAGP
Protocol: as §1, §2

[4] = target: T4, IL-17E (UniProt Q9H293 33-177); assay: as above
T4 sequence (looked up): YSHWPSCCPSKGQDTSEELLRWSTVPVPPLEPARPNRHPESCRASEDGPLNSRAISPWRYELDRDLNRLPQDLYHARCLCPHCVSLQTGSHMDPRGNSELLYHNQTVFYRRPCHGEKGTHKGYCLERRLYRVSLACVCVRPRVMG
Protocol: as §1, §2

[5] = target: T5, IL-17B (UniProt Q9UHF5 21-180); assay: as above
T5 sequence (looked up): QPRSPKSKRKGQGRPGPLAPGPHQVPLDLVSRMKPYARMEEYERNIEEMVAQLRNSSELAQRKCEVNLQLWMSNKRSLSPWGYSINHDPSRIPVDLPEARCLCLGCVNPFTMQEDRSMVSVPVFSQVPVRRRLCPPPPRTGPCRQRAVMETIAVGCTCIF
Protocol: as §1, §2

T1 sequence (chain, as listed by the source limits assumed): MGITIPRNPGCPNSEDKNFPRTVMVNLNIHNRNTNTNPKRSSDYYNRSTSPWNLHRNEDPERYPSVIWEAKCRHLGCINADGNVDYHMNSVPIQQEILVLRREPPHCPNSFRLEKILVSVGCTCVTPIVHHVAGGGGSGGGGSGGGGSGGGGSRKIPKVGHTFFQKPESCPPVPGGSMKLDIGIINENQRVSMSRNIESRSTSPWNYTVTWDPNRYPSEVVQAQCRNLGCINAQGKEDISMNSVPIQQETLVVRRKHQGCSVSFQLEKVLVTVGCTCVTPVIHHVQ

B1: Antibody CA028-0496 (murine IgG1 constant regions) (antibody, V domains shown)
VH: EVQLVESGGGLVQPGGSLRLSCAASGFTFSDYNMAWVRQAPGKGLEWVATITYEGRNTYYRDSVKGRFTISRDNAKNSLYLQMNSLRAEDTAVYYCASPPQYYEGSIYRLWFAHWGQGTLVTVSS
VL: AIQLTQSPSSLSASVGDRVTITCRADESVTTLMHWYQQKPGKAPKLLIYLVSNRESGVPSRFSGSGSGTDFTLTISSLQPEDFATYYCQQTWSDPWTFGQGTKVEIKR
notes: captured by anti-mouse IgG Fc
[1]
  Kd: 0.116 nM

B2: Antibody CA028-0496 (human IgG4 constant regions) (antibody, V domains shown)
VH: B1 VH
VL: B1 VL
notes: human gamma-4 constant region with hinge mutation S241P and human C-kappa (Km3), made in CHO cells; also called CA028496
[2]
  binding result: no binding
[3]
  binding result: no binding
[4]
  binding result: no binding
[5]
  binding result: no binding
